Among the data in a protein production outcome set (Wang et al. 2014) are protein production values, retold here.

This data set in a line: label from the status in PepcDB records.

In the case of “MPSLGEAPQDLQRSQERRRIERIFAQGGKGVASPHRFPGPLPMLQNIPTHVIAGPLGAGKTSLIRHLLSQRPAAERWAVLINEFGQIGLDAALLTRDEDGIALGEVAGGCLCCVNGAPFQVGLGRLLRKARPDRLLIEPSGLGHPAQLLKQLNEAPWKGVLAVQPCVLVLDAQALAAGKPLPRAQQDALSSAGLLVLNKDELLSDSDRLRVLEQLPDLPLFWTRHAALPLAELPGLGASAEAALEQSDIPQGLAQLPAVWSDPTLPICLSQSQEDGWSIGWRWHPSQQFDLVRVEHWLQNLDWRRAKLVLHSDQGWRSGNGLDNSPLNWLPSEWRRDSRLELIFSSPQDIAVLQASLDACRLLEHHHHHH”, the protein production entry is “failed”.

“MPSLPDRRRWLLDGARDTVPMMVGAAPFGLIFGTLAIAAGLSPAATAAMSLLVFAGSSQFIAVSLVSAGAALPVIWLTTFVVNLRHALYSATLLPYARPWPLAWRWPLAFWLTDETFAVVEHRFRSLGAEGGQWYWLGSSLSMYLNWQLWTLAGVALGRSVPGLDRLGLDFAMVATFAAIVAPQLKKRPTLAAALAAGAVALLARGLPYKLDLMLAALAGVAAGMMVERGQKREAA”: the protein production result is “failed”. Turning to “MPSLSVRGSLLLVCALAVTGCASLQSQDQINYAHCRMVGQASKAEKFDVVLQEADLCLEKNQLSQPMQSLVYWLKSDAYASFKRYPEAIAAKEKSIELGPKPDARAVLDLSRLYREAGNPQKALELVQSNLDNNLGEAGKGSGFNMPTYYHLGQTLYDLGRYREAAEAYSTGLLKQPDYAWAFYHRGLAYDKLGQTDDARADFAQFAKLVNQKYVEPQHQAKLAEYKIKLP”, the protein production result was “failed”. The result for “MPSPSGGWGCGGTWARGVDGARLFSIHHQAVRPNLSTISPPKEPPMIEVRHLCKSFARKPAVQDISFSIPAGEIVGYLGPNGAGKSTTIKVLTGLLVPDSGEVRVGGLVPWKQRRQHVARLGAVFGQRTTLWWDLPVRESLELLRHVYRVPAARFAENLAGFTELLELGPFLNTPARALSLGQRMRADLAAALLHDPELLFLDEPTVGLDVVAKERIREFVKAVNAERGVTVLLTTHDLGDVERLARRVMMIDTGRLLFDGPLAELQARYGGERELWVEFEKAPAQPALPGLTLLGQDGPRVRYGFSGAAAAPIAQVTALAPVRDLAVKEPEVEATIRRIYEGNLLGSRSVREGLEHHHHHH” reads “failed”. Take “MPSPVLIAIDASPASSTLLTLARRYCRPGEHELHVLLAIDSTFAVHEQPAPYTAEELEEYPAACQEQQHADHAVAEAVRELQQAGFASQGCMVAGLPVEAIVTKAQELNCELIIMGHRHLSRLGRLLDPSISAKVIDRVDMPVLV”: the protein production result is recorded as “failed”. “MPSTVSSSRLGLAGLCILLAGQLLPMIDFSIVNVALDALAHSLGASETELELIVAVYGVAFAVCLAMGGRLGDNYGRRRLFVLGVALFAVASLLCGLAGSVWLLLVARALQGVGAALVVPQILATLHVSLSGHAHSRALAAYGAIGGLAFVVGQVLGGFLVSADIGGLGWRSVFLINLPICLGILLCSRRWVPETRAEHAARVDAPGTLLLAALILCLLLPLALGPSLHWSWPCALLLAAAVPLLAWLWRTELRQERRQAWPLLPPSLLRLPSIRFGLLLAILFFACWSGFMFALALALQAGAGLSPVQAGNAFIALGASYFVSALLTARVAARIGPVRLLLLGCVIQMCGLLGLMLTLQRVWPQPGILNLAPATLVIGFGQAFIVSSFFRIGLSEVPAAQAGAGSAMLATVQQASLGLGSALLGAVFAHRLERHGDYLEATQTTLAVEFVLMTLLLGATCLFYLRRVRTVPLRCDSPGN”: the protein production entry is listed as “failed”. To “MPTLFDDPLHQLPRPPRRVAAGVVHLPNFLGLAEQKALVAQARDLAREVVGTPLAMVRPKLKSGQMSVHMLHLGKYWASNPYRYVDVVDGFPVPPLPDSFVDLAHRALLSAGSLSNSLQSWSEAYRAEAALVNYYSPDASMGMHQDANEESEAPVISLSIGDTGIFRLGGTLNRNKPWTDIPLMSGDLIVFGGANRQAFHGIPSIEANTAPAGCGLKEGRINITIRQLALLEHHHHHH” belongs “not failed”; to “MPTPFDVTILGGGLAGRLCAWQLAQTGVPPARIAVVERGARDGSGSAAYVAAAMLAPLAEAAVADRFVVELGLASLTLWRDWLPMLRTPVFFQQAGTLVVWHPADRGEASLFANHVRAATPPERIAADLRAVDAEGIGTLEPALAQRFSQGLYLAGEGQLDNRAVLDALATELEALGVQLRWNTAVADPHPQALAAAGLGARLVLDCRGLGAQPQWPQLRGLRGEVARIHAPDVTLTRPVRMLHPRYPIYIAPKPGHVYVIGATEIESDDMSPVSVRSTLELLSAAYAVHPAFGEARVLELCTQCRPTLPDHRPAIRWDGAGTLSVNGLYRHGYMIAPAVAQAAVAAAHALLDGRAIDAPASAWPGLFAAPASPEPVLPLEHHHHHH”, “not failed”; to “MPTTRKENLQFGMMMCLGMVIVMTFYNLLMNETGGPIYIKEIALELLIGFIIALLIEISIVGPCAKKIVFMLPFDKSKKINIIVAMATTMVIGMVFFMSFFGMAMMHLHGGLQGASFVSIYFSIFIKNFIMAYPLQLIIMGPLVRFLFAKFVMKKKSFNVA”, “failed”. The result for “MPTVAPLDIEGHVVSTHFLGDIPLFATAAGTIHRLDGGEKVTEAHDGLLTCIRDPYSATLLSGGEDGRVLRIGHDGSISEIANVPRKWVGVVAGGPQKAVAYGVGKSSFVRLSDCTVKEFKEERTVEAIAFAPKGLRIAVARYNGVTLHWVATAGDPVDLEWKGAHTGVTFSPDGKFLVTTMQENALHGWKMEATKGGMEARHMRMTGYPAKVKSISWSVKGKWLASSGAPAAIVWPFSGKDGPMGKAPEELGSRANIMATNVAFHPVEDVLAIGFIDGMILGVRLADGKEALLRRPGKGAITSMDWSATGNLLAFASEAGDCGIIDISALEHHHHHH” reads “failed”. The result for “MPTVKSRLVLYFPGFDPLDAAAHHLRYQRAAALAGKTWDVNYAVGPRESRPAGEAFTVEASAGNWSTRSDIVVYDHNDVISQLRDASVWRQIWLGFKAGAGIVSEGGAARYLRHAWRFGLFFIFPFLLMLAGGALAAGIALSPWLFSLPLWLLVVSIPAAALFFVKAFLPFAERFHTLHLYADWRFALAVGRNEPIARDWIEERAALVVTALEEPSDEVLVVSHSMGASLALAVIGRVLELKPDALDGRKLSFATLGGAALQCAFLSSAERLRESIGAIARHPDVTWFDIQCLTDPIHLYRCNTVALTGHKDAPQPKIVPIRFKHSLSPERYKKNKRNFLRMHRQYVLGPDRRSGYDFTLLTAGPLPAASFADLESQSPPAL” reads “failed”; that for “MPVAATNSETAMQQVLDNLGSLPSATGAAELDLIFLRGIMESPIVRSLAKAHERLEETKLEAVRDNNLELVQEILRDLAQLAEQSSTAAELAHILQEPHFQSLLETHDSVASKTYETPPPSPGLDPTFSNQPVPPDAVRMVGIRKTAGEHLGVTFRVEGGELVIARILHGGMVAQQGLLHVGDIIKEVNGQPVGSDPRALQELLRNASGSVILKILPSYQEPHLPRQVFVKCHFDYDPARDSLIPCKEAGLRFNAGDLLQIVNQDDANWWQACHVEGGSAGLIPSQLLEEKRKAFVKRDLELTPNSGTLCGSLSGKKKKRMMYLTTKNAEFDRHELLIYEEVARMPPFRRKTLVLIGAQGVGRRSLKNKLIMWDPDRYGTTVPYTSRRPKDSEREGQGYSFVSRGEMEADVRAGRYLEHGEYEGNLYGTRIDSIRGVVAAGKVCVLDVNPQAVKVLRTAEFVPYVVFIEAPDFETLRAMNRAALESGISTKQLTEADLRRTVEESSRIQRGYGHYFDLCLVNSNLERTFRELQTAMEKLRTEPQWVPVSWVY”, “not failed”. Take “MPVILCPAAEESSGLMMKSAETASLTVSHNELQAMAYTDPLTGLGNRNRMRDKVLQISAERASDPAPFTIGIANLDSFKPINDLFGSSAGDEILCQVAHRLRACIPDGALVTRHDGDEFAFVLPLIFERASAEKFGQMIREVLSAPYDLGDRNVRLSASFGFAIYPFAGEDCEELLKSAETALYRSKRRGRGQITVYSREIAQEMKRATQLEQALRNAIISDAIDVHFQPIVSLANNQVVGFEALARWNDPDLGFVSPGVFVPLAEERGFIDALSEALLRKAAEAALSWPRELFLSFNLSSAQLMDPGTSGSILSILGRVGFDPHRLELEITETAVMGSADTAHRIIADLRAAGVRISLDDFGTGQSSLGRLRDFIFDKIKIDRAFVSRINSDRASEHIIKAILSLCEGLELEVVAEGIEDYAEAVKLRTLGCGMGQGYHFGRPADGIATLRFLHENYYDMAPAERVSA”: the protein production entry is reported as “failed”.
